Laboratory results from paper PMC2759517.
pIC50: −log10 of the molar value.

Target: HA-tagged PA of FluA (Influenza A virus)
Test: ELISA

Chain of soluble wild-type PB1_(1–25)A peptide (non-biotinylated competitor) (A4GCI3 1-25): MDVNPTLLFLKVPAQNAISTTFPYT

## soluble wild-type PB1_(1–25)A peptide (non-biotinylated competitor)
  pIC50: 8.74
